Positions of bridges follow the written chain, without caps; N, C: chain ends. No end group written: not given here.

The Kd is the concentration at which binding is half-saturated.

B1: SEQ ID NO 10 phage isolate (peptide, not shown: large carriers; small tags and cut ends)
peptide: RLDCDMVFSGPHGKICVNY
modifications: disulfide 4-16 (inferred); also: displayed on M13 phage fused to protein III via linkers
B2: SEQ ID NO 12 phage isolate (peptide, not shown: large carriers; small tags and cut ends)
peptide: AHQCHHWTSGPYGEVCFNY
modifications: disulfide 4-16 (inferred); also: displayed on M13 phage fused to protein III via linkers
B3: SEQ ID NO 49 synthetic polypeptide (peptide)
chain: Ac-SGRLDCDKVFSGPYGKVCVSYGS
modifications: cysteine pairing not given here
B4: SEQ ID NO 22 synthetic polypeptide (peptide)
chain: Ac-SGRTTCHHQISGPHGKICVNYGS
modifications: cysteine pairing not given here
B5: SEQ ID NO 43 phage isolate (peptide, not shown: large carriers; small tags and cut ends)
peptide: SNKCDHYQSGPFGDICVSY
modifications: disulfide 4-16 (inferred); also: displayed on M13 phage fused to protein III via linkers
B6: SEQ ID NO 42 phage isolate (peptide, not shown: large carriers; small tags and cut ends)
peptide: SNKCDHYQSGPFGDVCVSY
modifications: disulfide 4-16 (inferred); also: displayed on M13 phage fused to protein III via linkers
B7: SEQ ID NO 44 phage isolate (peptide, not shown: large carriers; small tags and cut ends)
peptide: RTTCHHQISGPFGPVCVNY
modifications: disulfide 4-16 (inferred); also: displayed on M13 phage fused to protein III via linkers
B8: SEQ ID NO 45 phage isolate (peptide, not shown: large carriers; small tags and cut ends)
peptide: RTTCHHQISGPYGDICVKY
modifications: disulfide 4-16 (inferred); also: displayed on M13 phage fused to protein III via linkers

T1 sequence (P35968 with tags, fused parts or gaps limits assumed): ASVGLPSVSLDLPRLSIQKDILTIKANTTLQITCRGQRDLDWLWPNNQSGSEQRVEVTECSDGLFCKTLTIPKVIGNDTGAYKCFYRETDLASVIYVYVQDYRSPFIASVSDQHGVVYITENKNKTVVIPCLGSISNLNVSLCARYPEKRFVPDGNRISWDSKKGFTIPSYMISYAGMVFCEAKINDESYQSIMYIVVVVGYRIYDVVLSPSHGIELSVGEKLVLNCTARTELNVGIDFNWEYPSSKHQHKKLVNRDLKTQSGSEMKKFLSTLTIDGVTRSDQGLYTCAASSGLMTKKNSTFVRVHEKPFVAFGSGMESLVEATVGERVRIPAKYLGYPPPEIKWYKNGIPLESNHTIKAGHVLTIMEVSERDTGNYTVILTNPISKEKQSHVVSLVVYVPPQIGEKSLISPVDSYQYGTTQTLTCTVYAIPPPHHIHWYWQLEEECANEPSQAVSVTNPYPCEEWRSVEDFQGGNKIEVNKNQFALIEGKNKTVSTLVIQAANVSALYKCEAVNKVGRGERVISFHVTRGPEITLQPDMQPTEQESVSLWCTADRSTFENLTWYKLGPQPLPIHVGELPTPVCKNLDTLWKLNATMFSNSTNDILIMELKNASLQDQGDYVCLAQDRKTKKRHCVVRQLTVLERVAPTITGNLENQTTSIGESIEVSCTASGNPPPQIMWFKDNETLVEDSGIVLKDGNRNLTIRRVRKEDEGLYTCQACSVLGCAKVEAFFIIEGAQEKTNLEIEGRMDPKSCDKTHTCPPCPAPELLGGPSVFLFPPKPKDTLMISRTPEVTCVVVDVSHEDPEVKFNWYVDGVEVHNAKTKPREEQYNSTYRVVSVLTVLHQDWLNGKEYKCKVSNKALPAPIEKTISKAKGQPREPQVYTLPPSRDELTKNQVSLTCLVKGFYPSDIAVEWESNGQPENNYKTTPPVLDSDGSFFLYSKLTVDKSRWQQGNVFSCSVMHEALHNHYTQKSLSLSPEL

One assay addresses T1, KDR-Fc fusion protein (Homo sapiens, UniProt P35968).
T1 construct: purchased R & D Systems (Minneapolis, Minn.) 357-KD-050
Description: BIAcore surface plasmon resonance binding of synthetic polypeptides to immobilized KDR-Fc. The conditions noted are these: BIAcore SPR; KDR-Fc fusion immobilized on chip; synthetic polypeptide with acetyl-Ser-Gly- and -Gly-Ser flanks. The protocol: Binding affinity of selected peptides from the various rounds of selection was tested using a BIAcore surface plasmon resonance spectrophotometer. Polypeptides selected from Tables 1, 2, and 3 were synthesized by solid phase synthesis using the sequence as shown in the tables above and an N-terminal flanking peptide, acetyl-Ser-Gly-, and a C-terminal flanking peptide, -Gly-Ser. A KDR-Fc fusion protein target was immobilized on a BIAcore chip, and the synthetic polypeptides were flowed over the chip to measure the KD of the polypeptides with respect to the KDR target.
(In general: In SPR one partner is held on a chip, and binding of the other changes the refractive index at the surface.)
As to “SNKCDHYQSGPYGAVCLHY (Selected library sequence) [SEQ ID NO: 7]”, the “binding to KDR target (qualitative)” value is “no binding”.
“SNKCDHYQSGPHGKICVNY (Selected library sequence) [SEQ ID NO: 23]”: the “binding to KDR target (qualitative)” value is on record as “no binding”.
“WQECTKVLSGPGQFECEYM (Selected library sequence) [SEQ ID NO: 24]”: the “binding to KDR target (qualitative)” value is recorded as “no binding”.
Still for that read-out and setting: then “WQECTKVLSGPGQFLCSYG (Selected library sequence) [SEQ ID NO: 6]”, with “no binding”.

The target of the next assay is T2, KDR-Fc fusion (chimeric fusion of Ig Fc region with human KDR, R & D Systems #357-KD-050) (human, UniProt P35968 20-764).
T2 construct: Bought carrier-free from R & D Systems; also called KDR-Fc fusion protein target; KDR target; not shown: Ig Fc region
T2 sequence (P35968 20-764, change not shown): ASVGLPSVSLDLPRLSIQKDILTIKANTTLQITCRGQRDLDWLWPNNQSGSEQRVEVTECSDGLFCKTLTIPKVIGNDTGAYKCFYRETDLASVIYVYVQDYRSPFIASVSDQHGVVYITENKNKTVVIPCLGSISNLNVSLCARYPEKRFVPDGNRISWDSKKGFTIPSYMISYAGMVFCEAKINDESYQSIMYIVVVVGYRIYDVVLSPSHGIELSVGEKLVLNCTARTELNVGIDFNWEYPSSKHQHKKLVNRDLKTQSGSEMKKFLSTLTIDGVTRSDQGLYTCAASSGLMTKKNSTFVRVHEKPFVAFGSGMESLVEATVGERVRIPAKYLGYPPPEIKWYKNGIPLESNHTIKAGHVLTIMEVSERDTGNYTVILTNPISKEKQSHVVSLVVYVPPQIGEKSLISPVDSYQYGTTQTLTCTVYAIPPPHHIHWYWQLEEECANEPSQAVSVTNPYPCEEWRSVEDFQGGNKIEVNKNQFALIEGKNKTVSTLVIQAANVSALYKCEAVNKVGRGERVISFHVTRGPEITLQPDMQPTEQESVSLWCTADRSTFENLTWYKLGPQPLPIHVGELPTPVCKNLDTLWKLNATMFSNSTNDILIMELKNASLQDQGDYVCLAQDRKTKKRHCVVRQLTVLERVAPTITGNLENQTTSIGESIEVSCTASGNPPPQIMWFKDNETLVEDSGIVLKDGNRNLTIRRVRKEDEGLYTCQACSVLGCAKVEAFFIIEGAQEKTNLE
The assay is described as follows: phage display selection on KDR-Fc beads and phage ELISA screen on KDR-Fc.
Conditions: not given
The protocol: The phage library was incubated with 50 μl of Trail R4 Fc fusion beads on a Labquake shaker for 1 hour at room temperature (RT). After incubation, the phage supernatant was removed and incubated with another 50 μl of Trail R4 beads. This was repeated for a total of 5 rounds of depletion, to remove non-specific Fc fusion and bead binding phage from the library. The depleted library was added to 100 μl of KDR-Fc beads and allowed to incubate on a LabQuake shaker for 1 hour at RT. Beads were then washed as rapidly as possible with 5×1 ml PBSTH using a magnetic stand (Promega) to separate the beads from the wash buffer. Phage still bound to beads after the washing were competition-eluted using soluble VEGF₁₆₅ (#100-20) purchased in carrier-free form from Peprotech (Rocky Hill, N.J.) as follows: The beads were incubated with 250 μl of VEGF (50 μg/ml,˜1 μM) overnight at room temperature (RT) on a LabQuake shaker. […]
Once the plates were prepared, each overnight phage culture was diluted 1:1 (or to 10¹⁰ pfu if using purified phage stock) with PBS, 0.05% Tween-20, 1% BSA. […] Each plate was washed 7 times with PBST (PBS, 0.05% Tween-20), then the plates were developed with HRP substrate (˜10 minutes) and the absorbance signal (630 nm) detected with a plate reader.
As for B1, the binding result is “binds”.
Still for that read-out and setting: with B2 the entry was “binds”.

The target of another assay is T2, KDR-Fc fusion (chimeric fusion of Ig Fc …). The assay is described as follows: BIAcore SPR, KDR-Fc immobilized on chip, synthetic peptide flowed over.
Conditions: not given
Regarding B3, the Kd was 1000 nM.
As for B4, the affinity, expressed as Kd, was 650 nM.

The target is the same in another assay. The assay is described as follows: secondary library, round 1: phage display selection against KDR-Fc as before.
Conditions: not given
As to B5, the binding result is “binds”.
On the same count and under the same terms, then B6, with “binds”; and B7, with “binds”.
With B8, the binding result is “binds”.

The record behind these values is US20030186223A1, “Modular recombinatorial display libraries” (Dyax Corp., priority 2002, published 2003).
